Article PMC6309364

Biological target: _(SUMO)BMC-HRmm (SUMOylated BMC-H protein of Mycobacterium smegmatis) (Mycobacterium smegmatis)
Test: SEC

Substance: _(SUMO)BMC-HRmm (SUMOylated BMC-H protein of Mycobacterium smegmatis) (natural protein)
- stoichiometry N: 6
